In the DeepSol protein solubility set:

Test: soluble on expression in E. coli; label from the status in PepcDB or PDB records

Sequence | soluble on expression in E. coli
MSLLQVAPSAYRRHAARQRCPKLRSARSQRDEGLMAEIRRVWQANMQVYGVRKVWYQLQREGIAVARCTVERLMRRLGLQGVRRGKRVRTTIADGSQACSLDRVNRHFHADRPNQLWVSDFTYVSTWQGWLYVAFVIDVFARRIVGWRVSTTMSTDFVLDALEQALYDRRPAESLIHHSDRGSQYVSIRYTERLAEAGIEPSVGSRGDSYDNALAETINGLYKAELIHRRAPWKTRAAVELATLEWVAWYNHQRLLGSIGYIPPAQAEELYHRTHSETVPMNAVLEGHHHHHH | not soluble
MLPNVAVEFDENSIFRSLGKGNLTFREAFEEIIKFIEADTNSSYRISIGTDSHVGNGTLFVTCIHVHRIGKGAIGFLHKSLMSRPIRNLREKIYMETCMSLQLAYLFDEEKIDRIYKALGKNGKSPTKGVTFEFHIDIGKRGETKALINEMVGMVSGLNFIPKIKPDSYCASCFADRYTKAI | soluble
MAIAYFIPDQAQLLARSYQQNGQQTAASPRTTATAAAPSQQQQQSQQQQQQQRHHHQQQRPQFRANISVPLGSQQGSMTMSEFGCWDLLAQIFCYALRIYSYSSSQRQPTVIQISFEISSGGQNNDEDDVTDATSKEN | not soluble
MPISETWLLPDGVADVLPEQAQVVETLRRQALDFLASRGYQLVYTPFIEYIESLSLLSESNHDLDLVTFKVIDQLSGRLLGVRADMTPQVARIDAHVRSIEGVARYCYAGTVLHTKPQNFNSSRAPLQLGAELYGHQSLEADIEMVDVMLGLIQQAHNLEGLHLDLGHVGLFRSLVKRAGLSKQVEQDLSDLYQRKALPELEEVTKTLAFGSDFYALGRYASDLNALEQHLSQDVLNDASFKTSLDDLKTTLSQIQTRWPNLRIGIDVVELRSYHYHTGLMYAVYAPNRAAPLAQGGRYDGIGEHFGRARPATGFSCDLYALCVGQFKEIETIVAPAGQDQQLLGAIAQARQNGLRVIQLLGNDDLSSVPYATHKMELAQDQWQINKI | not soluble
ASNFTQFVLVDNGGTGDVTVAPSNFANGVAEWISSNSRSQAYKVTCSVRQSSAQNRKYTIKVEVPKVATQTVGGVELPVAAWRSYLNMELTIPIFATNSDCELIVKAMQGLLKDGNPIPSAIAANSGIYANFTQFVLVDNGGTGDVTVAPSNFANGVAEWISSNSRSQAYKVTCSVRQSSAQNRKYTIKVEVPKVATQTVGGVELPVAAWRSYLNMELTIPIFATNSDCELIVKAMQGLLKDGNPIPSAIAANSGIY | soluble
MASMTGGQQMGRGSMQNPSVTISVNANAGRHPINPAVYGLAYATTATLADLNVPLHRYGGNNTSRYNWQLNADNRGADWYFESIGEASSVAGERGDTFIANSQAAGAQAMITIPTIGWVARLGANRSKLASFSIAKYGAQSGNDWQWFPDAGNGVLTSGQNVTGNNPNDANTLVDSTFQQGWAQHLVSQWGTAAGGGLRYYILDNEPSIWFSTHRDVHPVGPTMDEIRDKMLDYGAKIKTVDPSALIVGPEEWGWSGYTLSGYDQQYGGLHGWSFMPDRNNHGGWDYLPWLLDQLRQNNLSTGRRLLDVFSVHYYPQGGEFGNDTSSAMQLRRNRSTRSLWDPNYIDETWINDKVQLIPRLKNWVSTYYPGTLTAITEYNWGAESHINGATTQADILGIFGREGLDMAARWTTPDTATPTYKAIKMYRNYDGNKSAFGDTSVTATAPNPDNVSAFAAVRSSDGALTVMVINKYLSGNTPATINLSNFTAQAQAQVWQLTAANTINHLSNVSLSGSSLSLTLPAQSVTLLVIPAST | soluble
AHHHHHHGSRIVLAYSGGLDTSVILKLMQEKLGAEVITVTVDVGQKDDFEKIEEKAYKFGAVKHYYIDAKEEFAENYVCKAIKANALYENAYPLSTALARPLIVEKLVEVAKKEGAGIIAHGCTGKGNDQVRFNLGIKALMPEAEILQPVAEWNLTRDWEMEYAKKHGIPVSDKIYSIDENIWGRSIEGGVLEDPSIEPPEEVFEWTVSIEKAPDKPEYVTIGFENGVPVSLNGEKMKLLELILKLNEIAGKHGVGRIDHIEDRSVGIKSREVYEAPAAVTLIKAHQDLEKLTLTKWVIEFKSIVDSKWSWLVYNGLWYEPLRLALEGFIDEAEKAVNGEVTVKLWKGNAIVVGRKSDNALYDVKMATYEKFSTFDQKLAKGFIELFGMQSVLAYNMLHGVHSTSNISEIKEAIKTLE | soluble
MSHSTYSLSFVASPSEEAQTALKELKAVYSDTPFEEADVIVALGGDGFMLQILNETMNSGKRVYGMNRGSVGFLMNDFRVEGLIQRIAVASGNDFHPLRMTTTDSDGDEFTALAMNEVSLFRQSHQAAKLRVEVDGKVRLEELICDGMMVATPAGSTAYNFSAHGPILPLESPLLALTPVSAFRPRRWRGALLPNKVTVDIHVLERDKRPVNAVADHTEVKSVRHVRIAQSQDRTAKILSDPDRSWSDRVLAEQFNNLEHHHHHH | not soluble
MSLSQIISSNDVDFQAYMAEAEPQAKVLAAEAWRDDLVRTVEHGDQITGAKLPWSKTHDLLRFRPGEVTLWQGINGHGKSELLGQACIGFATQGERVCIASFEMKPQATLKRMLRQTAMNARPGVQAVDRLIDWSRDRLWLYDQQGTVTPAMLYAVIRYCADRLKVRHMVIDSLMKCVRGEDDYNGQKDFVDMLCTLARDLRMHIHLVHHAKKGENEDQVPGKFSAKGSGAIVDQVDQMLTVWRNKKKERIAEAELRKDGEVSADTHDSPDTLLICDKNRHGEWEGRIQLWRHADSLQFTGDKRRQPLDMIGALAEGHHHHHH | soluble
MGLFQSDKAAEEIDPPQDVTFVNDEAGANSNTTAAKKTESEKSDTAKADQASSTVMRELYLIDKNGYVVAQTLPLPKSESTAKQALEYLVQGGPVSEILPNGFRAVLPADTTVNVDIKKDGTAIADFSNEFKNYKKEDEQKIVQSVTWTLTQFSSIDKVKLRINGHELKEMPVGGTPISDDLSRKDGINLETAGVNDLTATHPLTVYYLAENEDSEYYVPVTKRIDNSEKDDITAAINELAKGPSKVSGLLTDFSEDVKLVSKPKIKDGRVTLDFNQSIFGSADEKTKMISSEVLNSIVLTLTEQPDVKSVSVKVNGKSELVNEKGEKLTEPVSRPSQVNTGSFLEHHHHHH | soluble
MSLARVSGDAPAVSWETLDLHTAQPFGIARWTHSVYPRTFVTLTLDGRRGRGEAAPNAFYGETRGTVEAVLPLLAPALSDPWDWDGLHAALGARMPHDHPSVKCALEMAAVEWCAQAAGVPVWQLLGLSPTVLPESSYTVSLAPLPDMRRQAREAVGRGHRVLKVKLGTDQDEAILEALREEVPEVALRVDANAAWTRAQAKRMLGVLDAARVEFVEQPLAAGDLEGHAMLRGVSPVPIVADESLHHVGDVLALARAFDGVNLKLAKLGGPLQALRALRLARAHGMQVMMGCMIESSLGIAAAAHLAGLCDWADLDGALLLADDPYTGLDWTAGQLARPGGTGWGVTRRSEGHHHHHH | soluble
MKFLFIVQGEGRGHLTQAITLEEILRRNGHEVVEVLVGKSSSRRLPGFFNRNIHAPVKRFVSPNFLPTPANKRVSLMRSVAYNLVKLPVYINSINYIRQRIEASGADRVINFYELLTGLTYFLFRPSVPQICIGHQYLFLHKSFEFPKADKVSLALLKFFTVLTSLGAKERLALSFRHMKDDPQNHIRVIPPLLRREVTLHEPYSGDYIHGYMVNAGFSENVMKWHRQHPGIPLRFFWDKWEEEPVKRVDNTLSFYQLDDVEFLRQMAGCKAYASTAGFESVCEAMYLGKPILMVPAHIEQDCNAYDAEKSGAGIISSDFNLQQLLEFAKDYHPNRDFVYWVRGAEYTLLNLLESDSSNYQQVLFNEMYLVEEFI | not soluble
MIKIVTDNFLYEKEKVLALRYMYDSAKKPGITIITVTNKQKYIKNIMDNFRRCLYPKKEFIIILNDTKLQTSLYKNYFSKTKNLKLFKVDSSYSLGECLNLAISKSNYNYIAKMDDDDYYGSHYILDSMNAFNYTDASIIGKATHFIYFEDRTLLNLWCQGNENTYATSVAGATFVMKKSIFNKVKFNSLNNGEDIDLLSQCNNLGIKIYSCSKFNYVYNRHASPDNHSWKISNDLLVKRSIKLCITKSYKRIVHILEHHHHHH | not soluble
MRKIKLIAVVGPTAVGKTALGIELAKTFNGEIISGDSQQVYQKLDIGTAKASKEEQEQAYHHLIDVREVNENYSVYDFVKEAKVAIDTIISKGKIPIIVGGTGLYLQSLFEGYHLGGEVNQETLMAYREKLESLSDEDLFEKLTEQSIIIPQVNRRRAIRALELAKFGNDLQNSESPYDVLLIGLNDDRQVLYDRINRRVDLMMDNGLLDEAKWLYDNYPSVQASKGIGYKELFPYFSKQIPLEEAVDKLKQNTRRFAKRQLTWFRNRMNVEFIMVGEENYQQKIKRKVSDFLSSKLEHHHHHH | soluble
MDFDMIEEKKDSVIVRNVENFELKDIFDCGQCFRWHRQENGNYIGIAFEKVVEVQKIGEDVVIYNINEEEFKNVWSEYFDLYRDYGEIKKELSRDPLLKKSVDFGEGIRILRQDPFEILLSFIISANNRIPMIKKCINNISEKAGKKLEYKGKIYYAFPTVDKLHEFTEKDFEECTAGFRAKYLKDTVDRIYNGELNLEYIKSLNDNECHEELKKFMGVGPQVADCIMLFSMQKYSAFPVDTWVKKAMMSLYVAPDVSLKKIRDFGREKFGSLSGFAQQYLFYYARENNIQL | soluble
MDELLKAIKTKIAEMKKIELTGFTNTETATAYFQEKEAILEGIVKTLETITVQETSEVEALKSTVKSLREEIKGQAKSPRELSRRELLYNLGKGIAAAWSGNHKVLADLAFSPNLKSDNWTNPKDVSWGERGWTVSKAALGEPMGNMSPNNEQFLINPIYETEIMSDVAKKSVMMSLVRHRPMLGPSIFLPTRDRGGVQLNWLTAYGQKIEGSKPKGAERVELKAYTLAGFIPWFDEFEEDVFVDLGAMFIDEFIETYGQEFDRQCLLADDDPFTGAMACADVTEVTIKGDTIDDLTWKDFRDAVYKVPAEERKDCSWFLNETVLNHIANIEDTTGRPIWRRPTEAMPGRLDLYPYHEVSILPQIADIGENQAFAVFMNPKRIQHGNRRGIELKKFDGTTESLEYGELFLRFRKRDGFLVPDRKTTWSSLGHN | not soluble
TGILLANLGTPDAPTPEAVKRYLKQFLSDRRVVDTSRLLWWPLLRGVILPLRSPRVAKLYASVWMEDGSPLMVYSRQQQQALAQRLPDTPVALGMSYGSPSLESSVDELLAEHVDHIVVLPLYPQFSCSTVGAVWDELARILARKRSIPGISFIRDYADNHDYINALANSVRASFAKHGEPDLLLLSYHGIPQRYADEGDDYPQRCRTTTRELASALGMVPEKVMMTFQSRFGREPWLMPYTDETLKMLGEKGVGHIQVMCPGFAADCLETLEEIAEQNREVFLGAGGKKYEYIPALNATPEHIEMMANLV | not soluble
MGRHGKRGLNMTKQNSNTDRRSLQDCGVFSSAEYHSVGLSGGKDSSALLLLMLEKGMPIDSVIFADTGMDFPEMAAHIAKLDALLYRERGIHITTLRHPHGFEWLMFDEPKRKPSCLKNRARLGVPPYGNGWPGIKVRWCTGQLKTHLITKEVNRLKKEKNALHYIGIAADEAKRCKDAPNHRYPLVEWGVTEAQALQICYDRGFDFGGLYKIYHRASCWCCPLQRIGELRKLRQHHPELWARLWDMDNRARAQFGAGPLGQFKERWSIEQLDARFSREEKEERA | not soluble
RPQISIRVDVPKEEKGIEAMICLDISNSMLCEDVKPNRLSFAKQVLGKLFDGLQNDKVGLVVFAGNAYTQIPITTDLSAAKQFLADISPNMVTAQGTAIGAAIELASKSFSDNKEIGKTIIVLTDGENHEGNAIEAAQQAHEAGIRVNVIGLGTALGAPIPIEEGYLKDETGNPVVTKFDEKMCRDIASAGEGTFFSGQSASALVRAIESQLDKLPKAVLSSSSSSGYREV | not soluble
